For orientation: Kd means the free concentration of one partner at which half of the binding sites on the other are occupied at equilibrium, for simple one-to-one binding. As a reminder, the EC50 is the midpoint of the concentration-response curve.

From patent US20130251703A1 (Novartis, published 2013) come the findings set out here.

Assay [1] addresses T1, human HER3 endogenously expressed on human cancer cells (SK-Br-3, BT-474, MCF7) (human, UniProt P21860 20-1342). In words: cell-based or functional assay.
The target of assay [2] is T2, Rat HER3: CD33-[Rat HER3, residues 20-643]-TAG (rat, UniProt Q62799 20-643).
T2 construct: also called ra HER3-Tag; not shown: C-terminal TAG (e.g. FLAG TAG)
Kind of assay: solution equilibrium titration (SET), IgG, ECL read-out.

For assay [3], the target named is T3, Hu HER3: CD33-[Human HER3, residues 20-640]-TAG (human, UniProt P21860 20-640).
T3 construct: also called hu HER3-Tag; HER3-Tag; not shown: C-terminal TAG (e.g. FLAG TAG)
Described as above.

Assay [4] has as its target T4, Cyno HER3: CD33-[Cyno HER3, residues 20-643]-TAG (cynomolgus monkey, UniProt G7PIG5 20-643).
T4 construct: also called cy HER3-Tag; not shown: C-terminal TAG (e.g. FLAG TAG)
The description is as above.

Assay [5] addresses T5, Mu HER3: CD33-[Murine HER3, residues 20-643]-TAG (mouse, UniProt Q61526 20-643).
T5 construct: also called mu HER3-Tag; not shown: C-terminal TAG (e.g. FLAG TAG)
The description is as above.

The target of assay [6] is T1, human HER3 endogenously expressed on …. Kind of assay: cell-based or functional assay. This is another data set of the same source.
Assay [7] deals with T6, HER3 D2: CD33-[Human HER3, residues 185-329]-TAG (human, UniProt P21860 185-329).
T6 construct: also called D2-Tag; domain 2; not shown: C-terminal TAG (e.g. FLAG TAG)
Kind of assay: HER3 domain binding ELISA: recombinant protein coated on the plate, antibody titrated; the y axis reads 'Fluorescence Units'. The protocol:
(§1) All wells were then washed with PBS/0.1% Tween-20, blocked with PBS/1% BSA/0.1% Tween-20 and washed with PBS/0.1% Tween-20. Anti-HER3 antibodies were added to the relevant wells up to a final concentration of 10 μg/mL and incubated at room temperature. Plates were washed with PBS/0.1% Tween-20 prior to the addition of the appropriate peroxidase linked detection antibody diluted 1/10000 in PBS/1% BSA/0.1% Tween-20. The detection antibodies used were goat anti-mouse (Pierce, 31432), rabbit anti-goat (Pierce, 31402) and goat anti-human (Pierce, 31412). Plates were incubated at room temperature before washing with PBS/0.1% Tween-20. 100 μl TMB (3,3′,5,5′ tetramethyl benzidine) substrate solution (BioFx) was added to all wells before stopping the reaction with 50 μl 12.5% H₂SO₄. […] Where appropriate, dose response curves were analyzed using Graphpad Prism.
(In general: ELISA stands for enzyme-linked immunosorbent assay.)

For assay [8], the target named is T7, HER3 D1-2: CD33-[Human HER3, residues 20-329]-TAG (human, UniProt P21860 20-329).
T7 construct: also called D1-2-Tag; domains 1 and 2; not shown: C-terminal TAG (e.g. FLAG TAG)
Described as above. The protocol: as §1

The target in assay [9] is T1, human HER3 endogenously expressed on …. In words: cell-based or functional assay. This is another data set of the same source.
Assay [10] shares this target. In words: FACS titration of IgG on SK-Br-3 cells (endogenous HER3). The protocol:
The binding of antibodies to endogenous human antigen expressed on human cancer cells was accessed by FACS. In order to determine antibody EC₅₀ values SK-Br-3 cells were harvested with accutase and diluted to 1×10⁶ cells/mL in FACS buffer (PBS/3% FBS/0.2% NaN₃). 1×10⁵ cells/well were added to each well of a 96-well plate (Nunc) and centrifuged at 210 g for 5 minutes at 4° C. before removing the supernatant. Serial dilutions of test antibodies (diluted in 1:4 dilution steps with FACS buffer) were added to the pelleted cells and incubated for 1 hour on ice. The cells were washed and pelleted three times with […] FACS buffer. PE conjugated goat anti-human IgG (Jackson ImmunoResearch) diluted 1/200 with FACS buffer were added to the cells and incubated on ice for 1 hour. Additional washing steps were performed three times with 100 μL FACS buffer followed by centrifugation steps at 210 g for 5 minutes at 4° C. Finally, cells were resuspended in 200 μL FACS buffer and fluorescence values were measured with a FACSArray (BD Biosciences). The amount of cell surface bound anti-HER3 antibody was assessed by measuring the mean channel fluorescence.

B1: MOR12604 (antibody, V domains shown)
VH: QVQLVQSGAEVKKPGSSVKVSCKASGGTFSSYAISWVRQAPGQGLEWMGLIIPRYGKARYAQKFQGRVTITADESTSTAYMELSSLRSEDTAVYYCARNWPYYYMDFWGQGTLVTVSS
VL: DIVLTQSPATLSLSPGERATLSCRASQNIVFNLAWYQQKPGQAPRLLIYDASNRATGVPARFSGSGSGTDFTLTISSLEPEDFAVYYCQQKKSMPLTFGQGTKVEIKR
notes: Tested as IgG
Consider B1, for which, in assay [1], the “BT-474 pAkt % inhibition” value turned out to be 70%, the “BT-474 pAkt IC50” value amounted to 225 pM, the “MCF7 pAkt % inhibition” value was determined as 74% and the “MCF7 pAkt IC50” value is 235 pM. In assay [1], the “SK-Br-3 pAkt % inhibition” value came out at 85% and the “SK-Br-3 pAkt IC50” value is 17 pM. For the same molecule, the Kd in [2] came to 5.2 nM. Further, the Kd in assay [3] turned out to be 1.1 nM. For the same molecule, in assay [4], the Kd turned out to be 2.2 nM. Besides, the Kd in [5] was 1.9 nM. Further, in assay [6], the “MCF7 proliferation % inhibition” value was found to be 39%, the “MCF7 proliferation IC50” value stood at 0.073 nM, the “SK-Br-3 proliferation % inhibition” value turned out to be 42% and the “SK-Br-3 proliferation IC50” value stood at 0.015 nM. In assay [7], the binding result is on record as “no binding (tested: 10 µg/ml)”. In addition, in assay [8], the binding result is reported as “no binding (tested: 10 µg/ml)”. Moreover, in [9], the “BT474 pHER3 % inhibition” value came out at 62%, the “BT474 pHER3 IC50” value was found to be 142 pM, the “MCF7 pHER3 % inhibition” value came to 79% and the “MCF7 pHER3 IC50” value turned out to be 57 pM. Moreover, in [9], the “SK-Br-3 pHER3 % inhibition” value is 71% and the “SK-Br-3 pHER3 IC50” value came to 29 pM.

B2: MOR14534 (antibody, human IgG1, kappa, V domains shown)
VH: QVQLVQSGAEVKKPGSSVKVSCKASGGTFSSYAISWVRQAPGQGLEWMGLIIPRYGKARYAQKFQGRVTITADESTSTAYMELSSLRSEDTAVYYCARNWPYYYMDFWGQGTLVTVSS
VL: EIVLTQSPATLSLSPGERATLSCRASQNIVFNLAWYQQKPGQAPRLLIYDASNRATGIPARFSGSGSGTDFTLTISSLEPEDFAVYYCQQTKNRPPTFGQGTKVEIKR
notes: Tested as IgG
As to B2, the Kd in assay [2] amounted to 30 nM. Further, the Kd in assay [3] was 2.15 nM. Further, in assay [4], the Kd amounted to 6.35 nM. Moreover, the Kd in assay [5] was determined as 4 nM. Moreover, in [6], the “SK-Br-3 proliferation % inhibition” value was 40% and the “SK-Br-3 proliferation IC50” value came to 0.027 nM. Further, in [9], the “MCF7 pHER3 % inhibition” value came to 71%, the “MCF7 pHER3 IC50” value came to 16 pM, the “SK-Br-3 pHER3 % inhibition” value stood at 63% and the “SK-Br-3 pHER3 IC50” value was found to be 10 pM. Also, in [10], the EC50 is 0.028 nM.

B3: MOR14533 (antibody, human IgG1, kappa, V domains shown)
VH: QVQLVQSGAEVKKPGSSVKVSCKASGGTFSSYAISWVRQAPGQGLEWMGLIIPRYGKARYAQKFQGRVTITADESTSTAYMELSSLRSEDTAVYYCARNWPYYYMDFWGQGTLVTVSS
VL: EIVLTQSPATLSLSPGERATLSCRASQNIVFNLAWYQQKPGQAPRLLIYDASNRATGIPARFSGSGSGTDFTLTISSLEPEDFAVYYCQQTKSKPSPTFGQGTKVEIKR
notes: Tested as IgG
Turning to B3, the Kd in assay [2] was 9.65 nM. Also, the Kd in assay [3] stood at 0.64 nM. In [4], the Kd worked out at 2.95 nM. Moreover, the Kd in [5] was found to be 2 nM. Also, in [6], the “SK-Br-3 proliferation % inhibition” value is 46% and the “SK-Br-3 proliferation IC50” value was 0.026 nM. In [9], the “MCF7 pHER3 % inhibition” value was found to be 67%, the “MCF7 pHER3 IC50” value came out at 50 pM, the “SK-Br-3 pHER3 % inhibition” value worked out at 68% and the “SK-Br-3 pHER3 IC50” value was 20 pM. This molecule also returned an EC50 in [10] of 0.042 nM.

B4: MOR12615 (antibody, human IgG1, lambda, V domains shown)
VH: QVQLVQSGAEVKKPGASVKVSCKASGYTFTSYDIHWVRQAPGQGLEWMGRIDPYSGNTNYAQKFQGRVTMTRDTSISTAYMELSRLRSEDTAVYYCARGSFYTRDSYFDVWGQGTLVTVSS
VL: DIALTQPASVSGSPGQSITISCTGTSSDVGTYNQVSWYQQHPGKAPKLMIYGVSKRPSGVSNRFSGSKSGNTASLTISGLQAEDEADYYCSSRDLIGHYVFGGGTKLTVLG
notes: Tested as IgG
Take B4: in assay [1], the “BT-474 pAkt % inhibition” value was determined as 63%, the “BT-474 pAkt IC50” value came to 466 pM, the “MCF7 pAkt % inhibition” value worked out at 78% and the “MCF7 pAkt IC50” value is 815 pM. Besides, in assay [1], the “SK-Br-3 pAkt % inhibition” value turned out to be 86% and the “SK-Br-3 pAkt IC50” value came to 101 pM. Moreover, in assay [2], the Kd was found to be 0.31 nM. For the same molecule, the Kd in [3] was determined as 0.102 nM. Further, the Kd in assay [4] was 0.257 nM. Besides, in assay [5], the Kd came out at 0.336 nM. In addition, in assay [6], the “BT-474 proliferation % inhibition” value was 35%, the “BT-474 proliferation IC50” value was determined as 0.459 nM, the “MCF7 proliferation % inhibition” value was found to be 42% and the “MCF7 proliferation IC50” value turned out to be 2.54 nM. In [6], the “SK-Br-3 proliferation % inhibition” value came to 40% and the “SK-Br-3 proliferation IC50” value is 0.121 nM. Besides, the binding result in assay [7] is given as “no binding (tested: 10 µg/ml)”. Also, the binding result in [8] is recorded as “no binding (tested: 10 µg/ml)”. Also, in assay [9], the “BT474 pHER3 % inhibition” value stood at 56%, the “BT474 pHER3 IC50” value came out at 421 pM, the “MCF7 pHER3 % inhibition” value worked out at 75% and the “MCF7 pHER3 IC50” value was 447 pM. In addition, in assay [9], the “SK-Br-3 pHER3 % inhibition” value worked out at 71% and the “SK-Br-3 pHER3 IC50” value came out at 179 pM.

B5: MOR14538 (antibody, human IgG1, lambda, V domains shown)
VH: QVQLVQSGAEVKKPGASVKVSCKASGYTFTSYDIHWVRQAPGQGLEWMGRIDPYSGNTNYAQKFQGRVTMTRDTSISTAYMELSRLRSDDTAVYYCARGSFYTRDSYFDVWGQGTLVTVSS
VL: QSALTQPASVSGSPGQSITISCTGTSSDVGTYNQVSWYQQHPGKAPKLMIYGVSKRPSGVSNRFSGSKSGNTASLTISGLQAEDEADYYCASADHSYHTVFGGGTKLTVLG
notes: Tested as IgG
With B5, in [2], the Kd is 0.051 nM. Also, the Kd in assay [3] stood at 0.045 nM. Further, the Kd in assay [4] was found to be 0.026 nM. The Kd in assay [5] was determined as 0.023 nM. Further, in assay [6], the “SK-Br-3 proliferation % inhibition” value is 53% and the “SK-Br-3 proliferation IC50” value worked out at 0.081 nM. In [9], the “MCF7 pHER3 % inhibition” value stood at 83%, the “MCF7 pHER3 IC50” value was found to be 615 pM, the “SK-Br-3 pHER3 % inhibition” value was determined as 71% and the “SK-Br-3 pHER3 IC50” value stood at 263 pM. Also, in assay [10], it took 0.279 nM to reach a half-maximal effect (EC50).

B6: MOR14537 (antibody, human IgG1, lambda, V domains shown)
VH: QVQLVQSGAEVKKPGASVKVSCKASGYTFTSYDIHWVRQAPGQGLEWMGRIDPYSGNTNYAQKFQGRVTMTRDTSISTAYMELSRLRSDDTAVYYCARGSFYTRDSYFDVWGQGTLVTVSS
VL: QSALTQPASVSGSPGQSITISCTGTSSDVGTYNQVSWYQQHPGKAPKLMIYGVSKRPSGVSNRFSGSKSGNTASLTISGLQAEDEADYYCSSATQKPDVTVFGGGTKLTVLG
notes: Tested as IgG
As for B6, the Kd in [2] stood at 0.285 nM. The Kd in assay [3] stood at 0.21 nM. Besides, in assay [4], the Kd came out at 0.14 nM. Besides, the Kd in [5] worked out at 0.22 nM. For the same molecule, in assay [6], the “SK-Br-3 proliferation % inhibition” value was 48% and the “SK-Br-3 proliferation IC50” value was 0.047 nM. Also, in assay [9], the “MCF7 pHER3 % inhibition” value was 73%, the “MCF7 pHER3 IC50” value came to 200 pM, the “SK-Br-3 pHER3 % inhibition” value worked out at 69% and the “SK-Br-3 pHER3 IC50” value was found to be 97 pM. In assay [10], this molecule returned an EC50 of 0.179 nM.
